Source: paper doi:10.1101/2024.06.27.600912 (bioRxiv, 2024)

Target: the molecule itself
Assay: cryo-EM structure

Protein	binding result
MORC2 phosphodead mutant (S725A, S730A, S739A, S743A, S777A, S779A), full length (natural protein) MAFTNYSSLNRAQLTFEYLHTNSTTHEFLFGALAELVDNARDADATRIDIYAERREDLRGGFMLCFLDDGAGMDPSDAASVIQFGKSAKRTPESTQIGQYGNGLKSGSMRIGKDFILFTKKEDTMTCLFLSRTFHEEEGIDEVIVPLPTWNARTREPVTDNVEKFAIETELIYKYSPFRTEEEVMTQFMKIPGDSGTLVIIFNLKLMDNGEPELDIISNPRDIQMAETSPEGTKPERRSFRAYAAVLYIDPRMRIFIHGHKVQTKRLSCCLYKPRMYKYTSSRFKTRAEQEVKKAEHVARIAEEKAREAESKARTLEVRLGGDLTRDSRVMLRQVQNRAITLRREADVKKRIKEAKQRALKEPKELNFVFGVNIEHRDLDGMFIYNCSRLIKMYEKVGPQLEGGMACGGVVGVVDVPYLVLEPTHNKQDFADAKEYRHLLRAMGEHLAQYWKDIAIAQRGIIKFWDEFGYLSANWNQPPSSELRYKRRRAMEIPTTIQCDLCLKWRTLPFQLSSVEKDYPDTWVCSMNPDPEQDRCEASEQKQKVPLGTFRKDMKTQEEKQKQLTEKIRQQQEKLEALQKTTPIRSQADLKKLPLEVTTRPSTEEPVRRPQRPRSPPLPAVIRNAPSRPPSLPTPRPASQPRKAPVISSTPKLPALAAREEASTSRLLQPPEAPRKPANTLVKTASRPAPLVQQLSPSLLPNSKSPREVPSPKVIKTPVVKKTEAPIKLAPATPSRKRAVAVADEEEVEEEAERRKERCKRGRFVVKEEKKDSNELADAAGEEDSADLKRAQKDKGLHVEVRVNREWYTGRVTAVEVGKHVVRWKVKFDYVPTDTTPRDRWVEKGSEDVRLMKPPSPEHQSLDTQQEGGEEEVGPVAQQAIAVAEPSTSECLRIEPDTTALSTNHETIDLLVQILRNCLRYFLPPSFPISKKQLSAMNSDELISFPLKEYFKQYEVGLQNLCNSYQSRADSRAKASEESLRTSERKLRETEEKLQKLRTNIVALLQKVQEDIDINTDDELDAYIEDLITKGD	binds
full-length MORC2 ATPase-dead mutant S87A (natural protein) MAFTNYSSLNRAQLTFEYLHTNSTTHEFLFGALAELVDNARDADATRIDIYAERREDLRGGFMLCFLDDGAGMDPSDAASVIQFGKAAKRTPESTQIGQYGNGLKSGSMRIGKDFILFTKKEDTMTCLFLSRTFHEEEGIDEVIVPLPTWNARTREPVTDNVEKFAIETELIYKYSPFRTEEEVMTQFMKIPGDSGTLVIIFNLKLMDNGEPELDIISNPRDIQMAETSPEGTKPERRSFRAYAAVLYIDPRMRIFIHGHKVQTKRLSCCLYKPRMYKYTSSRFKTRAEQEVKKAEHVARIAEEKAREAESKARTLEVRLGGDLTRDSRVMLRQVQNRAITLRREADVKKRIKEAKQRALKEPKELNFVFGVNIEHRDLDGMFIYNCSRLIKMYEKVGPQLEGGMACGGVVGVVDVPYLVLEPTHNKQDFADAKEYRHLLRAMGEHLAQYWKDIAIAQRGIIKFWDEFGYLSANWNQPPSSELRYKRRRAMEIPTTIQCDLCLKWRTLPFQLSSVEKDYPDTWVCSMNPDPEQDRCEASEQKQKVPLGTFRKDMKTQEEKQKQLTEKIRQQQEKLEALQKTTPIRSQADLKKLPLEVTTRPSTEEPVRRPQRPRSPPLPAVIRNAPSRPPSLPTPRPASQPRKAPVISSTPKLPALAAREEASTSRLLQPPEAPRKPANTLVKTASRPAPLVQQLSPSLLPNSKSPREVPSPKVIKTPVVKKTESPIKLSPATPSRKRSVAVSDEEEVEEEAERRKERCKRGRFVVKEEKKDSNELSDSAGEEDSADLKRAQKDKGLHVEVRVNREWYTGRVTAVEVGKHVVRWKVKFDYVPTDTTPRDRWVEKGSEDVRLMKPPSPEHQSLDTQQEGGEEEVGPVAQQAIAVAEPSTSECLRIEPDTTALSTNHETIDLLVQILRNCLRYFLPPSFPISKKQLSAMNSDELISFPLKEYFKQYEVGLQNLCNSYQSRADSRAKASEESLRTSERKLRETEEKLQKLRTNIVALLQKVQEDIDINTDDELDAYIEDLITKGD	binds
